{
  "source": "paper PMC4715488",
  "origin": "cited, not measured here",
  "target": "GPP130 (Homo sapiens) (UniProt O00461)",
  "sequence (O00461 2-696)": "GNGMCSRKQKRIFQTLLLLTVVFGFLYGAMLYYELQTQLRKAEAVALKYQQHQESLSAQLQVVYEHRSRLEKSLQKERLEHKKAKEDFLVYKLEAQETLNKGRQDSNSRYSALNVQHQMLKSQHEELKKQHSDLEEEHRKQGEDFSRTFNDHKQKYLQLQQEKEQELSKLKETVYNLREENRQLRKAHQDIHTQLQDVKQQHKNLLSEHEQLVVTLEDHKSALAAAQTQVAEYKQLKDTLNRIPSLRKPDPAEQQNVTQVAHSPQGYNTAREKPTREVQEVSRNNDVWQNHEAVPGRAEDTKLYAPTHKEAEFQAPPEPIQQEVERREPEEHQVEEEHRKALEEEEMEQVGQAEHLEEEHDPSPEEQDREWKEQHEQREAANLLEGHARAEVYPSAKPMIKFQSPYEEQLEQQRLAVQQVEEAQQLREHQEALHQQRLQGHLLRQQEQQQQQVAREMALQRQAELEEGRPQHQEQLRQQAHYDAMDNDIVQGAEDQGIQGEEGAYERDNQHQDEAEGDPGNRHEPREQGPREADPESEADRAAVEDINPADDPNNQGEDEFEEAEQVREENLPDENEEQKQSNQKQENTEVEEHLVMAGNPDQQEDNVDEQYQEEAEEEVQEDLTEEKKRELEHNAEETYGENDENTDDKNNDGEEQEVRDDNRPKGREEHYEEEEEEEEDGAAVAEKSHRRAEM",
  "data": [
    {"substance": "Shiga toxin 1 B subunit (STx1B) (from UniProt Q32GM0)", "values": [
      {"measurement": "Kd", "result": 150, "unit": "nM"}
    ]}
  ]
}
